Source: patent US6800481B1, “Stable macroscopic membranes formed by self-assembly of amphiphilic peptides and uses therefor” (priority 1992, dated 2004)

Assays:
[1] = Testing of peptides for macroscopic membrane formation (phase-contrast microscope, Congo Red staining); format: physicochemical; details: for formation of macroscopic membranes: identical conditions, in words; for membranous structure in DMEM: DMEM medium
Excerpt: The effect of length and sequence on membrane formation was examined using several peptides (Table 1 and Example 3). […] Very long peptides, e.g., of about 200 amino acids, may encounter problems due to insolubility and intramolecular interactions which destabilize membrane formation. […] The optimal lengths for membrane formation will probably vary with the amino acid composition.
The EAK12 and EAK16 tested for membrane formation were acetylated and aminylated at both N- and C-terminal ends. […] The peptides were initially dissolved in water (5 mg/ml) or in 23% acetonitrile (10 mg/ml). A volume of 5-10 microliters of the dissolved peptides were applied to the DMEM medium, PBS or water. The formation of the membrane was first observed under a phase-contrast microscope and then, by the naked eye after staining with Congo Red.

[2] = format: physicochemical
Procedure: Circular dichroism (CD) spectra were taken on an Aviv Model 60DS spectropolarimeter using program 60HDS for data processing. Because EAK16 contains both positively and negatively charged residues, the peptide itself can serve as a buffer. CD samples were prepared and measured at 25° C., unless otherwise indicated. All reagents were ultrapure and solutions were filtered through a […] before use. Circular dichroism (CD) spectroscopy was used to monitor the stability of the β-sheet structure of EAK16 under various conditions. Dilute […] concentrations. […] A 3 mM stock EAK16 solution was mixed in water to a concentration of 20 μM, allowed to equilibrate, and the CD spectrum measured. The solution was then diluted five times by two-fold serial dilutions to final concentrations of […], 10, 5.0, 2.5, 1.25 and 0.625 μM, allowed to equilibrate and CD spectra taken. […] Temperature. The CD spectra of 8 μM EAK16 at 25, 37, 55, 70 and 90° C. in water were measured. […] EAK16 has a calculated pI Of 6.71. It was assumed that changes of pH would have a great effect on the β-sheet structure, especially when the charged groups are neutralized. […] The 3 mM stock solution of EAK16 was mixed with pH buffers at pH 1.5, 3, 7, and 11 to a final concentration of 10 μM and allowed to equilibrate for 4 hours before taking CD measurements. […] Chemical denaturants. […] The peptide (3 mM stock) was mixed with water or different concentrations of guanidine-HCl or urea and allowed to incubate overnight before taking CD measurements. SDS was added to a peptide solution to a final concentration of 0.1% and incubated for 30 minutes.

Substance	membranous structure in PBS [1]	formation of macroscopic membranes [1]	membranous structure in Water [1]	secondary structure and its stability [2]	Structure ([2]; secondary structure)	membranous structure in DMEM [1]
Ac-HN-AEAKAEAEAKAK-CONH2 (Ac-AEAKAEAEAKAK-NH2) [EAK12]	+	able to associate to a much smaller extent and formed small and non-uniform pieces of membranous material	−	denature from a β-sheet structure at high temperatures	α, β	
H2N-RPKQQFGLM-COHN2 (H-RPKQQFGLM-NH2) [Substance p, reference compound]	−	None of these peptides produced macroscopic membranes	−			−
H2N-AEAEAKAK-COOH (H-AEAEAKAK-OH) [EAK8]	−	did not form membranes	−	random coil structure		−
H2N-ARARADAD-COOH (H-ARARADAD-OH) [ARD8, 8 amino acid counterpart of RAD16]	−	did not form macroscopic membranes	−			−
H2N-GSNKGAIIGLM-CONH2 (H-GSNKGAIIGLM-NH2) [β-Amyloid (25-35), reference compound]	−	None of these peptides produced macroscopic membranes	−			−
